Experimental findings from PMC3352945 are described below.

Test [1] has as its target imported cpTatC. The experiment in a line: radioligand binding.
The target in test [2] is cpTatC (pea (endogenous in pea thylakoids)). Put plainly: pull-down.

Chain of tOE17 V-20F precursor protein (Q41048 whole entry): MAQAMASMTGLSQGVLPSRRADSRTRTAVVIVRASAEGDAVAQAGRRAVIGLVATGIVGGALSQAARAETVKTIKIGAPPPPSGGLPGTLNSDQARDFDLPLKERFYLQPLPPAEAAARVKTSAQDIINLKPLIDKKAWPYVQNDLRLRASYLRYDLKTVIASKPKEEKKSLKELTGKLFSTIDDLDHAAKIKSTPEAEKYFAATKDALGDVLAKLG
Chain of tOE17-GS3-His (Q41048 whole entry): as above

“tOE17 V-20F precursor protein (from UniProt Q41048 1-217) (natural protein)” showed a stoichiometry N (tOE17 per imported cpTatC) in test [1] of 0.92. In turn, “tOE17-GS3-His (from UniProt Q41048 1-217) (natural protein)” showed a stoichiometry N (tOE17-GS3-His per cpTatC) in test [2] of 1.05.
